Data taken from the supplement of paper PMC9732359.
± gives the uncertainty stated by the source.

Experiment: protein stability index of a GFP-peptide fusion (yeast GPS) (PSI 1-4); higher = more stable; sorted into four equal gates, so the index is relative within each strain
How it was run: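 Peptides tiling yeast proteins in 17-residue segments were fused downstream of GFP, with Cherry expressed from the same plasmid. As a pooled library in yeast, mid-log cultures grown in leucine-free medium were sorted into four equal gates by GFP/Cherry fluorescence ratio. Gate plasmids were PCR-amplified and Illumina-sequenced, and barcodes linked reads to strains. Each peptide received a protein stability index equal to the sum of each gate's read frequency times its gate number.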

Sequence	protein stability index (doa10∆)	protein stability index (pdr5∆)	protein stability index (san1∆)	protein stability index (ubr1∆)
TGPIEPKARQELPTQLA [RRP46]	2.82 ± 0.072	2.79 ± 0.074	3.21 ± 0.089	3.04 ± 0.056
KPTREPTPSVKTEPVGT [RPC53]	3.15 ± 0.22	3.06 ± 0.26	2.95 ± 0.19	3.02 ± 0.21
SNVAAIFKGIGGNFKDL [GAL11]	2.78 ± 0.11	2.76 ± 0.079	2.58 ± 0.079	2.72 ± 0.1
FSSKNEWRKSAIANTLL [PRP8]	2.99 ± 0.056	2.79 ± 0.045	2.94 ± 0.053	2.72 ± 0.045
TRYMFQRDFRKHGAVHM [RPL21B]	2.22 ± 0.099	2.14 ± 0.06	1.79 ± 0.12	1.99 ± 0.077
DPSISNNIRQAICRYAN [RRP4]	2.09 ± 0.077	2.06 ± 0.049	1.59 ± 0.11	2.43 ± 0.056
TAAIDSVVSQIEKGSTF [FAS1]	3.1 ± 0.097	2.95 ± 0.078	3.12 ± 0.072	2.93 ± 0.057
SELLGGTFKSTLDREYI [QCR2]	3.15 ± 0.093	3.17 ± 0.11	2.87 ± 0.089	3.1 ± 0.05
MANTGCLSPGAFLSKVP [SRP14]	2.56 ± 0.076	2.3 ± 0.091	2.74 ± 0.14	2.52 ± 0.061
NTSLPPSILEDSLENNE [FAS1]	2.89 ± 0.11	2.98 ± 0.11	3.11 ± 0.095	2.81 ± 0.079
IDNLESYAGISTDKLVQ [SIR2]	2.9 ± 0.057	2.93 ± 0.09	2.94 ± 0.068	3.08 ± 0.044
SDAAKEPPGSNTSFSFT [YOR098C/NUP1]	1.58 ± 0.046	1.96 ± 0.048	2.33 ± 0.053	1.91 ± 0.045
KNKSGKIFVETKFSKLI [FAS1]	2.33 ± 0.072	2.69 ± 0.076	2.3 ± 0.16	1.84 ± 0.077
LEETRTTIGDTTDKNTT [BRN1]	3.2 ± 0.071	3.27 ± 0.059	3.04 ± 0.055	3.17 ± 0.057
APMYILDEVDAALDLSH [SMC2]	2.94 ± 0.29	2.85 ± 0.21	2.92 ± 0.23	3 ± 0.073
NECVCTPYNADFDGDEM [RPO31]	3.06 ± 0.069	3.18 ± 0.069	3.06 ± 0.049	3.11 ± 0.09
NNPPKPQKPVPLNVLQD [SNF2]	3.04 ± 0.049	3.38 ± 0.06	3.21 ± 0.045	3.052 ± 0.028
FHSAVENLVQGNGNVSE [YCG1]	3.21 ± 0.092	2.97 ± 0.067	3.23 ± 0.069	3.02 ± 0.12
ITAVHVKIRATGGTRTK [RPS14A]	1.58 ± 0.05	1.63 ± 0.041	1.82 ± 0.09	1.67 ± 0.042
GSFKRVKPQYDEIHIPA [BRR2]	2.73 ± 0.1	3.07 ± 0.14	2.33 ± 0.096	2.46 ± 0.11
ANPVVATDPVAAKPDNL [SWP82]	3.26 ± 0.087	3.15 ± 0.097	3.23 ± 0.085	3.1 ± 0.05
NRWHSESWANQLTVCGA [FAS2]	1.93 ± 0.04	1.87 ± 0.053	1.8 ± 0.086	1.86 ± 0.042
LLARVIQMNNSLQNNLQ [SNF11]	3.01 ± 0.11	2.46 ± 0.097	2.36 ± 0.084	2.06 ± 0.086
SGGLFGNQQQQLQQQPQ [YGL172W/NUP49]	2.88 ± 0.13	2.61 ± 0.15	2.89 ± 0.093	3 ± 0.12
VTLYWNNAKLLTFMTCN [ESC2]	1.89 ± 0.041	2.09 ± 0.041	2.34 ± 0.045	2.57 ± 0.029
IDNGTGRTGNGNMGITT [MED6]	2.92 ± 0.12	2.98 ± 0.061	3.25 ± 0.067	3.31 ± 0.043

Sequence	protein stability index (doa10∆)	protein stability index (pdr5∆)	protein stability index (san1∆)	protein stability index (ubr1∆)
FNEDQLFSLLELGEQKC [RRP46]	2.37 ± 0.071	2.6 ± 0.089	2.61 ± 0.071	2.36 ± 0.062
ESFPDDIPLAKALDNAC [CDC53]	2.58 ± 0.07	2.97 ± 0.058	2.67 ± 0.055	2.8 ± 0.045
LVRNGPNEHPGAKYVIR [RPO21]	2.91 ± 0.095	2.95 ± 0.1	2.76 ± 0.14	2.8 ± 0.084
HLVELLLVFRNADLDLD [YDL116W/NUP84]	3.17 ± 0.12	2.46 ± 0.098	2.17 ± 0.099	2.5 ± 0.13
TYGISVVDVALKYPELS [NUT1]	2.04 ± 0.057	2.42 ± 0.075	2.04 ± 0.078	2.6 ± 0.041
RMSIKLLRLASKSTSMK [POP1]	2.49 ± 0.043	2.6 ± 0.047	2.48 ± 0.053	2.56 ± 0.04
YASLKLPNQIPGEYITT [YMR129W/POM152]	1.97 ± 0.049	2.19 ± 0.059	2.07 ± 0.057	2.09 ± 0.036
FVVGVDNVSSQQMHEVR [RPP0]	2.1 ± 0.078	2.74 ± 0.1	3.07 ± 0.15	2.74 ± 0.08
DIICEDSTLILEQLAQH [RPB2]	2.24 ± 0.047	2.56 ± 0.057	2.57 ± 0.084	2.35 ± 0.051
QTHPDTGISQKSMSILN [HTB1]	3.04 ± 0.056	3.01 ± 0.069	3.11 ± 0.06	2.72 ± 0.068
VGQLNKVVDQLFEKASV [RPN6]	2.5 ± 0.063	2.51 ± 0.15	2.77 ± 0.076	2.5 ± 0.058
ILKSPHLSKSPADRPQG [SIR4]	2.43 ± 0.074	2.51 ± 0.058	2.33 ± 0.056	2.37 ± 0.045
HLLIKIIRQLSELNEGN [SRB8]	2.8 ± 0.097	2.77 ± 0.089	3.18 ± 0.052	1.97 ± 0.053
ISTVIEVNREEAIGFIR [SMC3]	2.93 ± 0.21	2.65 ± 0.11	2.86 ± 0.16	2.57 ± 0.088
DFIQLKQTAAYRTPGSS [SSN2]	2.88 ± 0.064	2.98 ± 0.071	2.79 ± 0.083	2.92 ± 0.044
HFTSPIRRYCDVVAHRQ [DIS3]	2.04 ± 0.082	2.21 ± 0.066	2.06 ± 0.1	1.84 ± 0.073
LRDIGECENEIKTKQMS [SMC2]	3.05 ± 0.29	3.29 ± 0.092	3.2 ± 0.097	3.41 ± 0.12
LQNKPDAKKARFWSFMK [SIR4]	2.55 ± 0.098	2.68 ± 0.13	2.61 ± 0.093	2.17 ± 0.19
AHKGQIVLIKGISSAYI [SNU114]	1.56 ± 0.07	1.48 ± 0.064	1.89 ± 0.069	1.86 ± 0.053
NLPGNITVVLGVNGYIW [RRP4]	2.01 ± 0.15	2.64 ± 0.093	1.67 ± 0.12	2.5 ± 0.066
KKTATEPKQKANAVQNN [SRP21]	3.06 ± 0.086	3.19 ± 0.082		3.24 ± 0.12
RHQQLLRSRLQQQQQQQ [SNF5]	2.47 ± 0.078	2.54 ± 0.078	2.4 ± 0.12	2.67 ± 0.072
QKSGRPVKSIRARLKGK [RPO21]	2.17 ± 0.12	2.23 ± 0.12	2.34 ± 0.2	1.77 ± 0.24
QILSVAIPNGIHLQRFD [RPO21]	2.41 ± 0.1	2.33 ± 0.075	1.94 ± 0.1	2.77 ± 0.079
LPVASPFHSHLLVPASD [FAS1]	1.61 ± 0.053	1.62 ± 0.062	1.98 ± 0.063	1.96 ± 0.044
LKWKKGIRGKLVTIEGA [SMC1]		3.31 ± 0.24	3.31 ± 0.12	
